Test results as given in patent US20260232828A1, “LIGAND-CYTOTOXICITY DRUG CONJUGATES AND PHARMACEUTICAL USES THEREOF” (HANSOH BIO LLC, priority 2023, published 2026).
Residue numbers refer to the chain shown, from its start. Blank lines part the entries; values can stand above or below the binder they belong to.

Tests used:
[1] = biological target: T1, human CDH17 as originally expressed in cells (cell surface CDH17 on AsPC1, GP2d and other cancer cell lines) (human, UniProt Q12864 23-832); assay: flow cytometry titration on CDH17 positive AsPC1 cells
T1 construct: whole, on cells; Endogenous CDH17 on human cancer cell lines; AsPC1 and GP2d are named CDH17 positive; also called CDH17 positive AsPC1 cells; GP2d cells
Procedure: To determine the binding of recombinant antibody to cell surface CDH17 receptors, cells were first harvested and resuspended in cell staining buffer (BioLegend, Cat #420201) at 1.3-1.5×10⁶ cells/mL. Then, the cells were treated with human Fc receptor blocking reagent (BioLegend, Cat #422302) on the ice for 10 min. The resulting cell suspension was aliquoted into 50 μL aliquots. […] The cells were incubated on the ice for 1 hour and then washed with cell staining buffer twice. 50 μL of secondary antibody (PE conjugated goat anti-human Fc, eBioscience™, 1:250 dilution) was added to each sample to resuspend the cells. The cells were incubated on the ice for another 20 min. Cells were subsequently washed twice with cell staining buffer and resuspended in 4% PFA to fix the cells. The samples were analyzed using iQue3 to measure the median fluorescence intensity using corresponding channels.

[2] = biological target: T1, human CDH17 as originally expressed in …; assay: cell-based or functional assay
BSA [3] = biological target: T2, BSA (UniProt P02769 25-607); assay: ELISA, plate coated with 1 µg/ml BSA, hybridoma supernatant
T2 construct: Control coating protein of the ELISA
Procedure: (§1) ELISA was performed using the DuoSet ELISA Ancillary Kit (R&D System, DY008). ELISA plates were coated with 1 μg/ml of human CDH17 His Tag (Sino biological, catalog number 11360-H08H), or BSA overnight. Excess unbound proteins were washed off by washing the plates three times with the wash buffer before blocking for 1 hour at room temperature. 100 μl CDH17 hybridoma supernatant was added in each well and incubated for 1 hour at room temperature. Excess unbound antibodies were washed off and 100 μl of 1:30000 diluted secondary antibody Goat anti-mouse IgG Fc-HRP (ab5870) was added to each well for another 1 hour. Plates were washed before the addition 50 μL of […] (color A and color B) according to manufacturer's protocol. The reactions were stopped using 25 μL of stop solution. Optical density at 450 nm of samples was measured by a microplate reader (PerkinElmer).

[4] = biological target: T3, human CDH17 His Tag (Sino biological, catalog number 11360-H08H) (human, UniProt Q12864 23-787); assay: ELISA, plate coated with 1 µg/ml human CDH17 His Tag, hybridoma supernatant
T3 construct: Bought recombinant protein; also called hCDH17; human CDH17 protein; not shown: His tag
Procedure: as §1

BSA [5] = biological target: T2, BSA; assay: ELISA, plate coated with BSA, hybridoma supernatant
Procedure: as §1

T2 sequence (P02769 25-607 limits assumed): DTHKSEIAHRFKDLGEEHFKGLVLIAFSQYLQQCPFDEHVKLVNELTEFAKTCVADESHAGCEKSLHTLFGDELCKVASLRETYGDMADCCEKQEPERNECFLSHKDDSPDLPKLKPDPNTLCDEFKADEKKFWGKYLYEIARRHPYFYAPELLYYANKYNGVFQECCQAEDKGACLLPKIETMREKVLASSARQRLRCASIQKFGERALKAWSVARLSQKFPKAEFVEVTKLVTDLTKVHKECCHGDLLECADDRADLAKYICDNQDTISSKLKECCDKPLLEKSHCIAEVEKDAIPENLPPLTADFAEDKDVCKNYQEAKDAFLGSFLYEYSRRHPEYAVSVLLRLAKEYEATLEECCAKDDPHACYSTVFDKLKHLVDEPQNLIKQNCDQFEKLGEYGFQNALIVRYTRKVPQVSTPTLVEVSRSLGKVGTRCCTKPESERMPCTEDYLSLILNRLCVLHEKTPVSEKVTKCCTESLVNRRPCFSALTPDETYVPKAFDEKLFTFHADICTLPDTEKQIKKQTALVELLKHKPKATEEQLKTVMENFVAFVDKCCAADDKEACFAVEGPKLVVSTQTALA

binding result (BSA [3]): no binding
OD450 [4]: 1.88 OD450
OD450 (BSA [5]): 0.041 OD450
B5: 14B12 (hybridoma clone supernatant) (antibody, V domains shown)
VH: QVQLQESGPGLVKPSETLSLTCTVSGGSINTYYRSWIRQPPGKGLEWIGYIYYSGNTNYNPSLKSRVTISADTSKNQFSLNLISVTAADTAMYYCARAQYGEEAFDIWGQGTLVTVSS
VL: DIQMTQSPSSLSASVGDRVTITCRASQSITTYLNWYQQKPGKAPQLLIFAASRLQTGVPSRFSGSGSGTDFTLTISSLLPGDFATYYCQQSYNTPPTFGGGTKVEIK
notes: Hybridoma supernatant

binding result (BSA [3]): no binding
OD450 [4]: 1.52 OD450
OD450 (BSA [5]): 0.051 OD450
B6: 4F9 (hybridoma clone supernatant) (antibody, V domains shown)
VH: QVQLQESGPGLVKPSGTLSLTCAVSGGSISSSNWWSWVRQPPGKGLEWIGEIYHSGSTSYNPSLKSRVTISVDKSKNQFSLKLSSVTAADTAVYYCARNDWGFPLDCWGQGTLVTVSS
VL: DIQMTQSPSSLSASVGDRVTITCRASQSISSYLNWYQQKPGKAPKLLIYAASSLQSGVPSRFSGSGSGTHFTLTISSLQPEDFATYYCQQSHNIPITFGQGTRLEIK
notes: Hybridoma supernatant

Kd [1]: 280 pM
B10: 13C7 anti-CDH17 recombinant antibody (human IgG1) (antibody, V domains shown)
VH: QITLKESGPTLVKPTQTLTLTCTFSGFSLSTSGVGVGWIRQPPGKALEWLALIYWNDDKRYRPSLKNRLTITKDTSKNQVVLTMTNMDPVDTATYYCTHYGVTAPFYNWFDPWGQGTLVTVSS
VL: DIQMTQSPSSLSASVGDRVTITCRASQSITSYLNWYQQKPGKAPKLLIYAASSLQSGVPSRFSGSGSGTDFTLTISSLQPEDFATYYCQRSYSTLTFGGGTKVEIKR
IC50 of indirect killing assay to evaluate the internalization in AsPC1 cells [2]: 90 pM

binding result (BSA [3]): no binding
OD450 [4]: 1.84 OD450
OD450 (BSA [5]): 0.0468 OD450
B11: 19C7 (hybridoma clone supernatant) (antibody, V domains shown)
VH: B10 VH with F27I, S32G, A51S, R62S, N67S, T75S, T98A, Y100S, V102L, T103A
VL: DIQMTQSPSSLSASVGDRVTITCRASQSISNYLNWYQLKPGNAPKLLIFAASSLQSGVPSRFSGSGSGTDFTLTISSLQPEDFATYFCQRSYSTLTFGGGTKVEIK
notes: Hybridoma supernatant

binding result (BSA [3]): no binding
OD450 [4]: 1.62 OD450
OD450 (BSA [5]): 0.0432 OD450
B12: 13C7 (hybridoma clone supernatant) (antibody, V domains shown)
VH: B10 VH
VL: B11 VL with S30T, N31S, L38Q, N42K, F49Y, F87Y
notes: Hybridoma supernatant

Kd [1]: 130 pM
B13: 19C7 anti-CDH17 recombinant antibody (human IgG1) (antibody, V domains shown)
VH: B10 VH with F27I, S32G, A51S, R62S, N67S, T75S, T98A, Y100S, V102L, T103A
VL: B10 VL with T30S, S31N, Q38L, K42N, Y49F, Y87F
IC50 of indirect killing assay to evaluate the internalization in AsPC1 cells [2]: 90 pM

Kd [1]: 310 pM
B14: 1H10 anti-CDH17 recombinant antibody (human IgG1) (antibody, V domains shown)
VH: QVQLVESGGGVVQPGRSLRLSCVASGFTFSSYGMHWVRQAPGKGLEWVTFIWYDGSNKNYADSVKGRFTISRDNSKNTLNLQMNSLRVEDTAVYYCARDRYSSGWDVFDYWGQGTLVTVSS
VL: DIQMTQSPSSVSASVGDRVTITCRASQDISSWLAWYQQQPGKAPKLQIYAASSLQSGVPSRFSGSGSGTDFTLTISSLQPEDFATYYCQQAKSFPPTFGQGTKVEIKR
IC50 of indirect killing assay to evaluate the internalization in AsPC1 cells [2]: 190 pM

binding result (BSA [3]): no binding
OD450 [4]: 1.6 OD450
OD450 (BSA [5]): 0.0431 OD450
B15: 15A4 (hybridoma clone supernatant) (antibody, V domains shown)
VH: B14 VH with V23A, T28N, T49A, I51V, K58Q, K76N, N80Y, V88A
VL: DIQMTQSPSSVSASVGDRVTITCRASQGISSWLAWYQQKPGKAPKLLIFAASSLQSGVPSRFSGSGSGTGFTLTISSLQPEDFATYYCQQAKSFPPTFGQGTKVEIK
notes: Hybridoma supernatant

Continued, binder first:

B1: 2F9 anti-CDH17 recombinant antibody (human IgG1) (antibody, V domains shown)
VH: EVQLVESGGGVVRPGGSLRLSCAASGFTFDDYGMSWVRQAPGKGLEWVSGLSWNGGNTYYADSVKGRFTISRDNAKNSLYLQMNSLRAEDTALYYCARGSRYNWNYDAFDIWGQGTLVTVSS
VL: DIQMTQSPSSLSASIGDRVTITCRASQGIRNALGWYQQKPGKAPKRLIYAASNLQSGVPSRFSGSGSGTEFTLTISSLQPEDFATYYCLQHNSYPFTFGPGTKVEIKR
Kd [1]: 170 pM
IC50 of indirect killing assay to evaluate the internalization in AsPC1 cells [2]: 140 pM

B2: 2F9 (hybridoma clone supernatant) (antibody, V domains shown)
VH: B1 VH
VL: DIQMTQSPSSLSASIGDRVTITCRASQGIRNALGWYQQKPGKAPKRLIYAASNLQSGVPSRFSGSGSGTEFTLTISSLQPEDFATYYCLQHNSYPFTFGPGTKVEIK
notes: Hybridoma supernatant
binding result (BSA [3]): no binding
OD450 [4]: 1.72 OD450
OD450 (BSA [5]): 0.0718 OD450

B3: 9E2 anti-CDH17 recombinant antibody (human IgG1) (antibody, V domains shown)
VH: B1 VH with D31N, L51I, S52N, N57S, K65R, N105S
VL: B1 VL with I15V, I29V, N53S
Kd [1]: 310 pM
IC50 of indirect killing assay to evaluate the internalization in AsPC1 cells [2]: 150 pM

B4: 9E2 (hybridoma clone supernatant) (antibody, V domains shown)
VH: B1 VH with D31N, L51I, S52N, N57S, K65R, N105S
VL: B2 VL with I15V, I29V, N53S
notes: Hybridoma supernatant
binding result (BSA [3]): no binding
OD450 [4]: 1.48 OD450
OD450 (BSA [5]): 0.0429 OD450

B7: 10E11 (hybridoma clone supernatant) (antibody, V domains shown)
VH: EVQLVQSGTEVKKPGESLKISCKDSGYRFSSYWIGWVRQMPGKGLEWMGIIYPGDSDTRYSPSFQGQVTISADKSISTAYLQWRSLKASDTAMYYCARRGWVNYFDYWGQGTLVTVSS
VL: B15 VL with S31N, A34G, F49Y, G70D, K92N, P96L, Q100G
notes: Hybridoma supernatant
binding result (BSA [3]): no binding
OD450 [4]: 1.48 OD450
OD450 (BSA [5]): 0.0475 OD450

B8: 17F3 anti-CDH17 recombinant antibody (human IgG1) (antibody, V domains shown)
VH: EVQLVESGGGLVKSGGSLRLSCAASGFTFSSYSLKWVRQAPGKGLEWVSSISSSSGYIYYADSVKGRFTISRDNAKNSLYLQMNSLRAEDTAMYYCARAVSTIAARPGYYYYYMDVWGKGTLVTVSS
VL: DIQMTQSPSSVSASIGDRVTITCRASQDISTWFAWYQQKPGKAPKLLIYAASTLRSGVPSRFSGSGSGTDFTLTINSLQPEDFATYYCQQANSFPLTFGGGTKVEIKR
Kd [1]: 740 pM
IC50 of indirect killing assay to evaluate the internalization in AsPC1 cells [2]: 80 pM

B9: 17F3 (hybridoma clone supernatant) (antibody, V domains shown)
VH: B8 VH
VL: DIQMTQSPSSVSASIGDRVTITCRASQDISTWFAWYQQKPGKAPKLLIYAASTLRSGVPSRFSGSGSGTDFTLTINSLQPEDFATYYCQQANSFPLTFGGGTKVEIK
notes: Hybridoma supernatant
binding result (BSA [3]): no binding
OD450 [4]: 1.66 OD450
OD450 (BSA [5]): 0.0425 OD450

B16: 1H10 (hybridoma clone supernatant) (antibody, V domains shown)
VH: B14 VH
VL: B15 VL with G28D, K39Q, L47Q, F49Y, G70D
notes: Hybridoma supernatant from mice encoding human heavy and kappa variable regions
binding result (BSA [3]): no binding
OD450 [4]: 1.79 OD450
OD450 (BSA [5]): 0.0399 OD450
